Laboratory results taken from US20240058465A1 (SUTRO BIOPHARMA, published 2024).
Like-named read-outs stand apart in the source and are kept apart here.

Columns and labels:
[1] = target: T1, receptor tyrosine kinase orphan receptor 1 (ROR1) on Ntera-2 cells (human, UniProt Q01973 30-937); assay: cell-based or functional assay
[2] = target: T2, human ROR1 (hROR1) (human, UniProt Q01973 30-937); assay: cell-based or functional assay
[3] = target: T2, human ROR1 (hROR1); assay: flow cytometry, HCT116-hROR1 cells
[4] = target: T3, human ROR1 Frizzled domain (hROR1-Fz) (human, UniProt Q01973 165-305); assay: SPR Biacore, IgG on anti-Fc, ROR1-Fz analyte
T3 construct: Acro Biosystems, made in HEK293
In short: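 Test antibodies captured on an anti-Fc surface (CM5 chip), then analyte bound for 180 s with 600 s dissociation at 25° C in HBS-EP+ buffer at 50 μL/min. Human ROR1 ECD, Frizzled or Kringle domain used as analyte; regeneration with 10 mM glycine pH 2.0.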

[5] = target: T1, receptor tyrosine kinase orphan …; assay: cell-based or functional assay; remark: listed apart in the source

Binder | cell killing EC50, NTERA-2 cells [1] | cell killing Span, NTERA-2 cells [1] | Mino Nb-PBD, drug-conjugated 2° antibody Cell Killing EC50 [2] | Mino Nb-PBD, drug-conjugated 2° antibody Cell Killing Span [2] | Bmax (MFI) [3] | Kd [3] | Kd [4] | koff [4] | kon [4] | cell killing EC50, NTERA-2 cells [5] | cell killing Span, NTERA-2 cells [5]
Conjugate 29 (A05 x C06-F404-LP8 biparatopic) (bispecific antibody, human IgG1, kappa, pAMF at F404 (EU), linked to LP8) heavy 1: MEVQLVESGGGLVQPGGSLRLSCAASGFNIKEYHIHWVRQAPGKGLEWVGYISPNSGSTYYADSVKGRFTISADTSKNTAYLQMNSLRAEDTAVYYCARDHRRYVRPFDYWGQGTLVTVSSASTKGPSVFPLAPSSKSTSGGTAALGCLVKDYFPEPVTVSWNSGALTSGVHTFPAVLQSSGLYSLSSVVTVPSSSLGTQTYICNVNHKPSNTKVDKKVEPKSCDKTHTCPPCPAPELLGGPSVFLFPPKPKDTLMISRTPEVTCVVVDVSHEDPEVKFNWYVDGVEVHNAKTKPREEQYNSTYRVVSVLTVLHQDWLNGKEYKCKVSNKALPAPIEKTISKAKGQPREPQVYTLPPSREEMTKNQVSLWCLVKGFYPSDIAVEWESNGQPENNYKTTPPVLDSDGSFLYSKLTVDKSRWQQGNVFSCSVMHEALHNHYTQKSLSLSPGK heavy 2: MEVQLVESGGGLVQPGGSLRLSCAASGFNITSYGIHWVRQAPGKGLEWVGWIAPNSGNTYYADSVKGRFTISADTSKNTAYLQMNSLRAEDTAVYYCARDIVSTYSYYYLMDYWGQGTLVTVSSASTKGPSVFPLAPSSKSTSGGTAALGCLVKDYFPEPVTVSWNSGALTSGVHTFPAVLQSSGLYSLSSVVTVPSSSLGTQTYICNVNHKPSNTKVDKKVEPKSCDKTHTCPPCPAPELLGGPSVFLFPPKPKDTLMISRTPEVTCVVVDVSHEDPEVKFNWYVDGVEVHNAKTKPREEQYNSTYRVVSVLTVLHQDWLNGKEYKCKVSNKALPAPIEKTISKAKGQPREPQVYTLPPSREEMTKNQVSLSCAVKGFYPSDIAVEWESNGQPENNYKTTPPVLDSDGSFLVSKLTVDKSRWQQGNVFSCSVMHEALHNHYTQKSLSLSPGK light: not shown | 0.027 nM | 88% | – | – | – | – | – | – | – | – | –
SRP2193-D02 (antibody, IgG1, V domains shown, His/FLAG-tagged IgG1, cell-free) VH: EVQLVESGGGLVQPGGSLRLSCAASGFNIKDYYIHWVRQAPGKGLEWVGAIDPESGSTVYADSVKGRFTISADTSKNTAYLQMNSLRAEDTAVYYCARSRWFRVLWSYVFDYWGQGTLVTVSS VL: not shown | – | – | 0.0038 nM | 61% | 15500 MFI | 1.22 nM | 6.94 nM | 0.00101 s⁻¹ | 146000 M⁻¹ s⁻¹ | – | –
SRP2193-D05 (antibody, IgG1, V domains shown, His/FLAG-tagged IgG1, cell-free; also called Antibody 78) VH: EVQLVESGGGLVQPGGSLRLSCAASGFNINDHYIHWVRQAPGKGLEWVGAIDPNSGSTVYADSVKGRFTISADTSKNTAYLQMNSLRAEDTAVYYCARSRWFRVLWSYVFDYWGQGTLVTVSS VL: not shown | – | – | 0.0042 nM | 59% | 15800 MFI | 1.64 nM | 2.89 nM | 0.000331 s⁻¹ | 114000 M⁻¹ s⁻¹ | – | –
SRP2193-C11 (antibody, IgG1, V domains shown, His/FLAG-tagged IgG1, cell-free) VH: EVQLVESGGGLVQPGGSLRLSCAASGFNIADSYIHWVRQAPGKGLEWVAVIDPKSGSTNYADSVKGRFTISADTSKNTAYLQMNSLRAEDTAVYYCARSRWFRVLWSYVFDYWGQGTLVTVSS VL: not shown | – | – | 0.0015 nM | 63% | 15700 MFI | 0.64 nM | 2.37 nM | 0.000273 s⁻¹ | 115000 M⁻¹ s⁻¹ | – | –
SRP2193-B01 (antibody, IgG1, V domains shown, His/FLAG-tagged IgG1, cell-free) VH: EVQLVESGGGLVQPGGSLRLSCAASGFNIGGYYIHWVRQAPGKGLEWVGAIDPRSGYTVYADSVKGRFTISADTSKNTAYLQMNSLRAEDTAVYYCARSRWFRVLWSFVLDYWGQGTLVTVSS VL: not shown | – | – | 0.0023 nM | 66% | 15300 MFI | 0.15 nM | 1.13 nM | 0.000178 s⁻¹ | 158000 M⁻¹ s⁻¹ | – | –
SRP2193-C09 (antibody, IgG1, V domains shown, His/FLAG-tagged IgG1, cell-free; also called Antibody 118) VH: EVQLVESGGGLVQPGGPLRLSCAASGFNINHSYIHWVRQAPGKGLEWVGAIDPISGSTVYADSVKGRFTISADTSKNTAYLQMNSLRAEDTAVYYCARSRWSRVLWSYVFDYWGQGTLVTVSS VL: not shown | – | – | 0.0016 nM | 64% | 15500 MFI | 0.35 nM | 2.22 nM | 0.000394 s⁻¹ | 178000 M⁻¹ s⁻¹ | – | –
SRP2193-D04 (antibody, IgG1, V domains shown, His/FLAG-tagged IgG1, cell-free; also called Antibody 71) VH: EVQLVESGGGLVQPGGSLRLSCAASGFNINGFYIHWVRQAPGKGLEWVGAIDPNGGSTVYADSVKGRFTISADTSKNTAYLQMNSLRAEDTAVYYCARSRWYRVLWSYAFDYWGQGTLVTVSS VL: not shown | – | – | 0.0045 nM | 65% | 15000 MFI | 0.7 nM | 2.81 nM | 0.000292 s⁻¹ | 104000 M⁻¹ s⁻¹ | – | –
SRP2193-D06 (antibody, IgG1, V domains shown, His/FLAG-tagged IgG1, cell-free; also called Antibody 80) VH: EVQLVESGGGLVQPGGSLRLSCAASGFNIRDYYIHWVRQAPGKGLEWVRAIDPHSGSTVYADSVKGRFTISADTSKNTAYLQMNSLRAEDTAVYYCARSRWFRVLWSYVFDYWGQGTLVTVSS VL: not shown | – | – | 0.0057 nM | 68% | 14300 MFI | 0.28 nM | 101 nM | 0.6 s⁻¹ | 5.94e+06 M⁻¹ s⁻¹ | – | –
SRP2193-E05 (antibody, IgG1, V domains shown, His/FLAG-tagged IgG1, cell-free; also called Antibody 84) VH: EVQLVESGGGLVQPGGSLRLSCAASGFNIKRSYIHWVRQAPGKGLEWVVSIDPNGSSTHYADSVKGRFTISADTSKNTAYLQMNSLRAEDTAVYYCARSRWFRVLWSYVLDYWGQGTLVTVSS VL: not shown | – | – | 0.00034 nM | 70% | 18300 MFI | 0.1 nM | 0.674 nM | 0.000199 s⁻¹ | 295000 M⁻¹ s⁻¹ | – | –
SRP2193-B11 (antibody, IgG1, V domains shown, His/FLAG-tagged IgG1, cell-free; also called Antibody 100) VH: EVQLVESGGGLVQPGGSLRLSCAASGFNITGSYIHWVRQAPGKGLEWVGAIDPKSGFTSYADSAKGRFTISADTSKNTAYLQMNSLRAEDTAVYYCARSRWFRVLWSFVFDYWGQGTLVTVSS VL: not shown | – | – | 0.0013 nM | 66% | 15200 MFI | 0.46 nM | 1.59 nM | 0.000251 s⁻¹ | 158000 M⁻¹ s⁻¹ | – | –
SRP2193-E06 (antibody, IgG1, V domains shown, His/FLAG-tagged IgG1, cell-free; also called Antibody 73) VH: EVQLVESGGGLVRPGGSLRLSCAASGFNIDDYYIHWVRQAPGKGLEWVGVIDPKNGSTVYADSVKGRSTISADTPKSTAYLQMNSLRAEDTAVYYCARSRWFRVLWSYVFDYWGQGTLVTVSS VL: not shown | – | – | 0.0025 nM | 63% | 14700 MFI | 5.82 nM | 2.23 nM | 0.000246 s⁻¹ | 111000 M⁻¹ s⁻¹ | – | –
SRP2193-C02 (antibody, IgG1, V domains shown, His/FLAG-tagged IgG1, cell-free; also called Antibody 81) VH: EVQLVESGGGLVQPGGSLRLSCAASGFNISDYYIHWVRQAPGKGLEWVGTIDPQSGSTVYADSVKGRFTISADTSENTAYLQMNSLRAEDTAVYYCARSRWFRVLWSFVFDYWGQGTLVTVSS VL: not shown | – | – | 0.0034 nM | 62% | 15800 MFI | 0.85 nM | 6.2 nM | 0.00173 s⁻¹ | 278000 M⁻¹ s⁻¹ | – | –
SRP2193-B06 (antibody, IgG1, V domains shown, His/FLAG-tagged IgG1, cell-free) VH: EVQLVESGGGLVQPGGSLRLSCAASGFNIDGYYIHWVRQAPGKGLEWVAAIDPHPGSTVYADSVKGRFTISADTSKNTAYLQMNSLRAEDTAVYYCARSRWFRVLWTYVFDYWGQGTLVTVSS VL: not shown | – | – | 0.0027 nM | 65% | 14600 MFI | 1.7 nM | 5.31 nM | 0.000487 s⁻¹ | 91700 M⁻¹ s⁻¹ | – | –
SRP2193-B09 (antibody, IgG1, V domains shown, His/FLAG-tagged IgG1, cell-free; also called Antibody 75) VH: EVQLVESGGGLVQPGGSLRLSCAASGFNINNSYIHWVRQAPGKGLEWVGIIDPNNGSTAYADSVKGRFTISADTSKNTAYLQMNSLRAEDTAVYYCARSRWYRVLWSYVLDYWGQGTLVTVSS VL: not shown | – | – | 0.0029 nM | 67% | 15200 MFI | 0.23 nM | 1.9 nM | 0.000226 s⁻¹ | 119000 M⁻¹ s⁻¹ | – | –
Conjugate 37 (D04-F404-LP33) (antibody, human IgG1, kappa, pAMF at F404 (EU), linked to LP33) heavy: MEVQLVESGGGLVQPGGSLRLSCAASGFNISDYDIHWVRQAPGKGLEWVGGIDPADGSTDYADSVKGRFTISADTSKNTAYLQMNSLRAEDTAVYYCARDYGVYDYWGQGTLVTVSSASTKGPSVFPLAPSSKSTSGGTAALGCLVKDYFPEPVTVSWNSGALTSGVHTFPAVLQSSGLYSLSSVVTVPSSSLGTQTYICNVNHKPSNTKVDKKVEPKSCDKTHTCPPCPAPELLGGPSVFLFPPKPKDTLMISRTPEVTCVVVDVSHEDPEVKFNWYVDGVEVHNAKTKPREEQYNSTYRVVSVLTVLHQDWLNGKEYKCKVSNKALPAPIEKTISKAKGQPREPQVYTLPPSREEMTKNQVSLTCLVKGFYPSDIAVEWESNGQPENNYKTTPPVLDSDGSFLYSKLTVDKSRWQQGNVFSCSVMHEALHNHYTQKSLSLSPGK light: not shown | – | – | – | – | – | – | – | – | – | 0.01 nM | 89%
